Data as given in PMC8754640.

Columns and labels:
[1] = target: His-PABP WT-Flag (Flag-PABP) (UniProt P11940 2-636); assay: EMSA
[2] = target: His-PABP 4EA-Flag (Flag-PABP 4EA) (UniProt P11940 2-636, E178A;E180A;E182A;E189A); assay: EMSA
Sequence of His-PABP 4EA-Flag (Flag-PABP 4EA) (P11940 2-636 E178A/E180A/E182A/E189A): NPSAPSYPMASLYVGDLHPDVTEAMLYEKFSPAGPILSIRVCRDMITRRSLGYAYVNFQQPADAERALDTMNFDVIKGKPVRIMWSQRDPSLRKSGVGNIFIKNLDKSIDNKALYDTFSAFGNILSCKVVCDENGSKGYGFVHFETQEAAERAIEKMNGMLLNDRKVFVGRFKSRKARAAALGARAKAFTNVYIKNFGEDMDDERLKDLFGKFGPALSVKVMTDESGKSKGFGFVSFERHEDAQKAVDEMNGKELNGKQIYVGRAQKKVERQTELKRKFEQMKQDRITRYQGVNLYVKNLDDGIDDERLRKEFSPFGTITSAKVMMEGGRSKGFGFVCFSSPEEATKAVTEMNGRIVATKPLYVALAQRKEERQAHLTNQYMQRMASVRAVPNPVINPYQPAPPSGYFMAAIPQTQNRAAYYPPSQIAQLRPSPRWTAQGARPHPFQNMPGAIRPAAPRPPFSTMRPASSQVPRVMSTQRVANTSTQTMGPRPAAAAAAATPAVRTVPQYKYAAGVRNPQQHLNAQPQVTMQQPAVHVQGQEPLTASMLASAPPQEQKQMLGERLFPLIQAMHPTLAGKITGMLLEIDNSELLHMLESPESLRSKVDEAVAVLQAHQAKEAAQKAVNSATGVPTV

Sequence of His-PABP WT-Flag (Flag-PABP) (P11940 2-636): as the sequence (P11940 2-636 E178A/E180A/E182A/E189A) above, with A177E, A179E, A181E, A188E counted along it

B1: poly(A)25 (ssRNA)
RNA: AAAAAAAAAAAAAAAAAAAAAAAAA
Kd [1]: ~0.5 nM | Kd [2]: ~2.2 nM
